{"source": "paper PMC3696691", "about": "“Zinc-induced Self-association of Complement C3b and Factor H” (The Journal of Biological Chemistry, 2013)", "binders": {"B1": {"name": "complement Factor H (FH), wild-type (natural protein, human, UniProt P08603 19-1231, looked up)", "chain": "EDCNELPPRRNTEILTGSWSDQTYPEGTQAIYKCRPGYRSLGNVIMVCRKGEWVALNPLRKCQKRPCGHPGDTPFGTFTLTGGNVFEYGVKAVYTCNEGYQLLGEINYRECDTDGWTNDIPICEVVKCLPVTAPENGKIVSSAMEPDREYHFGQAVRFVCNSGYKIEGDEEMHCSDDGFWSKEKPKCVEISCKSPDVINGSPISQKIIYKENERFQYKCNMGYEYSERGDAVCTESGWRPLPSCEEKSCDNPYIPNGDYSPLRIKHRTGDEITYQCRNGFYPATRGNTAKCTSTGWIPAPRCTLKPCDYPDIKHGGLYHENMRRPYFPVAVGKYYSYYCDEHFETPSGSYWDHIHCTQDGWSPAVPCLRKCYFPYLENGYNQNYGRKFVQGKSIDVACHPGYALPKAQTTVTCMENGWSPTPRCIRVKTCSKSSIDIENGFISESQYTYALKEKAKYQCKLGYVTADGETSGSITCGKDGWSAQPTCIKSCDIPVFMNARTKNDFTWFKLNDTLDYECHDGYESNTGSTTGSIVCGYNGWSDLPICYERECELPKIDVHLVPDRKKDQYKVGEVLKFSCKPGFTIVGPNSVQCYHFGLSPDLPICKEQVQSCGPPPELLNGNVKEKTKEEYGHSEVVEYYCNPRFLMKGPNKIQCVDGEWTTLPVCIVEESTCGDIPELEHGWAQLSSPPYYYGDSVEFNCSESFTMIGHRSITCIHGVWTQLPQCVAIDKLKKCKSSNLIILEEHLKNKKEFDHNSNIRYRCRGKEGWIHTVCINGRWDPEVNCSMAQIQLCPPPPQIPNSHNMTTTLNYRDGEKVSVLCQENYLIQEGEEITCKDGRWQSIPLCVEKIPCSQPPQIEHGTINSSRSSQESYAHGTKLSYTCEGGFRISEENETTCYMGKWSSPPQCEGLPCKSPPEISHGVVAHMSDSYQYGEEVTYKCFEGFGIDGPAIAKCLGEKWSHPPSCIKTDCLSLPSFENAIPMGEKKDVYKAGEQVTYTCATYYKMDGASNVTCINSRWTGRPTCRDTSCVNPPTVQNAYIVSRQMSKYPSGERVRYQCRSPYEMFGDEEVMCLNGNWTEPPQCKDSTGKCGPPPPIDNGDITSFPLSVYAPASSVEYQCQNLYQLEGNKRITCRNGQWSEPPKCLHPCVISREIMENYNIALRWTAKQKLYSRTGESVEFVCKRGYRLSSRSHTLRTTCWDGKLEYPTCAKR", "notes": "Complement factor H, human, 20 SCR domains (SCR-1/20); Calculated mass 154.4 kDa; source: gel filtration"}}, "biological_target": "T1, C3b (human, UniProt P01024 23-667; P01024 749-1663, free SH group of the C3b thioester blocked with 20 mM iodoacetamide)", "T1 construct": "Complement C3 beta chain, human; Complement C3b alpha' chain, human: the alpha chain without the ANA/C3a domain; here cut by trypsin; 12 domains; calculated mass 179.3 kDa; also called active C3b; source: made from C3 purified from human plasma by trypsin (1% w/w, 120 s, 37 °C), iodoacetamide added, purified on Superose 6", "experiment": "AUC; sedimentation velocity, 50,000 rpm, 20 °C; 1:1 mixture of 5.5 uM C3b and 5.5 uM FH incubated at 4 °C overnight; no zinc", "conditions": "both partners purified"}
{"binder": "B1", "values": [{"measurement": "stoichiometry N", "value": 1}]}
